# From IntAct's records for PubMed 22653727
# Tests used:
# clock_mouse Clock [1] = target: clock_mouse Clock (UniProt O08785)
# clock_mouse Clock [2] = target: clock_mouse Clock (UniProt O08785); remark: listed apart in the source
# clock_mouse Clock [3] = target: clock_mouse Clock (UniProt O08785); remark: listed apart in the source
# clock_mouse Clock, sequence (O08785 whole entry): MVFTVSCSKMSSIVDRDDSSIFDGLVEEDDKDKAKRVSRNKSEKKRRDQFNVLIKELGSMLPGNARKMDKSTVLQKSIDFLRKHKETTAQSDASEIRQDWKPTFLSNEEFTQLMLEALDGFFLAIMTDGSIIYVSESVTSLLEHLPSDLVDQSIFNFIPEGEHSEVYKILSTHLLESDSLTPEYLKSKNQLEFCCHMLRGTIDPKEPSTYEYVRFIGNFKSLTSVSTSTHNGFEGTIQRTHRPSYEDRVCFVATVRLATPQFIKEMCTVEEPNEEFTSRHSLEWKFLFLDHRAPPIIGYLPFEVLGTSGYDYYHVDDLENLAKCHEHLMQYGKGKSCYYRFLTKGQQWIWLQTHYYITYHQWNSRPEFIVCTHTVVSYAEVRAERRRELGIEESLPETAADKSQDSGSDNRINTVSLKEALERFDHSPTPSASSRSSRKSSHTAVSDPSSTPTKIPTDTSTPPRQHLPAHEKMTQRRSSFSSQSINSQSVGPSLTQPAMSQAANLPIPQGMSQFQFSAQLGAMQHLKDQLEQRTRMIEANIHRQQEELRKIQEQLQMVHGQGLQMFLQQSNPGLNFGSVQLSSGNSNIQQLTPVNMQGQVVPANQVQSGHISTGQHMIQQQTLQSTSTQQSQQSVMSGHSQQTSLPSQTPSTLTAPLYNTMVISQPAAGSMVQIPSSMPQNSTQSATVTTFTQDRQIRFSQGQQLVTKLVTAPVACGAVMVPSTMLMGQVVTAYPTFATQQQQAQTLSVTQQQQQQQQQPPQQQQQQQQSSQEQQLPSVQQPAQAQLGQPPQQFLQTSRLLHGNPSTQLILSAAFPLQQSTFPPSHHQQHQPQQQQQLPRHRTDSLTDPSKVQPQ
# Basic helix-loop-helix ARNT-like protein 1 (Mus musculus), Q9WTL8-4 L150E, sequence (Q9WTL8 other isoform, or with tags, fused parts or gaps L150E): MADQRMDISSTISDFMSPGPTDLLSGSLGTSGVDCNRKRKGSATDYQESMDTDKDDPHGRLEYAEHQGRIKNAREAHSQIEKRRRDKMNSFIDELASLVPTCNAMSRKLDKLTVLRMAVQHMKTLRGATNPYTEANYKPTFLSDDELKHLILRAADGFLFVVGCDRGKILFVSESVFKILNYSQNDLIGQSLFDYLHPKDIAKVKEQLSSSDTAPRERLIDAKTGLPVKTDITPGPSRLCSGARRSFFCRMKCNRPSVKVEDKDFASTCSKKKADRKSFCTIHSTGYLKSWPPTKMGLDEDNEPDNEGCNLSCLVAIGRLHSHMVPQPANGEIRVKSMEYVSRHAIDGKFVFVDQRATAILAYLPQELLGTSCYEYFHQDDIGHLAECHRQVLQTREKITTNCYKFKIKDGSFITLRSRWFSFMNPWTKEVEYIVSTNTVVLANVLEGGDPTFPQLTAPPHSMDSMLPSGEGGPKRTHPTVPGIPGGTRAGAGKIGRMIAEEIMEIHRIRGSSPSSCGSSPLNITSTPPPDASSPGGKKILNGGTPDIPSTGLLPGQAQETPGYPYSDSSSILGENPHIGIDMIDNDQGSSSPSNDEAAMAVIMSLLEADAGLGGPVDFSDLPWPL
# Basic helix-loop-helix ARNT-like protein 1 (Mus musculus), Q9WTL8-4 I317D, sequence (Q9WTL8 other isoform, or with tags, fused parts or gaps I317D): as the sequence (Q9WTL8 other isoform, or with tags, fused parts or gaps L150E) above
# Basic helix-loop-helix ARNT-like protein 1 (Mus musculus), Q9WTL8-4 W427A, sequence (Q9WTL8 other isoform, or with tags, fused parts or gaps W427A): as the sequence (Q9WTL8 other isoform, or with tags, fused parts or gaps L150E) above
# Basic helix-loop-helix ARNT-like protein 1 (Mus musculus), Q9WTL8-4 F423R;V435R, sequence (Q9WTL8 other isoform, or with tags, fused parts or gaps F423R;V435R): as the sequence (Q9WTL8 other isoform, or with tags, fused parts or gaps L150E) above
# Basic helix-loop-helix ARNT-like protein 1 (Mus musculus), Q9WTL8-4 V435R, sequence (Q9WTL8 other isoform, or with tags, fused parts or gaps V435R): as the sequence (Q9WTL8 other isoform, or with tags, fused parts or gaps L150E) above
# Basic helix-loop-helix ARNT-like protein 1 (Mus musculus), Q9WTL8-4 L95E;L150E;W427A, sequence (Q9WTL8 other isoform, or with tags, fused parts or gaps L95E;L150E;W427A): as the sequence (Q9WTL8 other isoform, or with tags, fused parts or gaps L150E) above
# Basic helix-loop-helix ARNT-like protein 1 (Mus musculus), Q9WTL8-4 L95E, sequence (Q9WTL8 other isoform, or with tags, fused parts or gaps L95E): as the sequence (Q9WTL8 other isoform, or with tags, fused parts or gaps L150E) above
# Basic helix-loop-helix ARNT-like protein 1 (Mus musculus), Q9WTL8-4 F423R, sequence (Q9WTL8 other isoform, or with tags, fused parts or gaps F423R): as the sequence (Q9WTL8 other isoform, or with tags, fused parts or gaps L150E) above
# Basic helix-loop-helix ARNT-like protein 1 (Mus musculus), Q9WTL8-4 L115E, sequence (Q9WTL8 other isoform, or with tags, fused parts or gaps L115E): as the sequence (Q9WTL8 other isoform, or with tags, fused parts or gaps L150E) above
effect of a mutation on the interaction (clock_mouse Clock [1]),effect of a mutation on the interaction (clock_mouse Clock [2]),effect of a mutation on the interaction (clock_mouse Clock [3]),Substance
decreasing interaction strength,with no effect,–,"Basic helix-loop-helix ARNT-like protein 1 (Mus musculus), Q9WTL8-4 W427A"
with no effect,disrupting interaction strength,–,"Basic helix-loop-helix ARNT-like protein 1 (Mus musculus), Q9WTL8-4 V435R"
disrupting interaction strength,disrupting interaction strength,–,"Basic helix-loop-helix ARNT-like protein 1 (Mus musculus), Q9WTL8-4 L95E;L150E;W427A"
disrupting interaction strength,–,–,"Basic helix-loop-helix ARNT-like protein 1 (Mus musculus), Q9WTL8-4 L115E"
decreasing interaction strength,disrupting interaction strength,–,"Basic helix-loop-helix ARNT-like protein 1 (Mus musculus), Q9WTL8-4 F423R;V435R"

# Continued, substance first:
Substance,effect of a mutation on the interaction (clock_mouse Clock [1]),effect of a mutation on the interaction (clock_mouse Clock [2]),effect of a mutation on the interaction (clock_mouse Clock [3])
"Basic helix-loop-helix ARNT-like protein 1 (Mus musculus), Q9WTL8-4 I317D",disrupting interaction strength,decreasing interaction strength,–
"Basic helix-loop-helix ARNT-like protein 1 (Mus musculus), Q9WTL8-4 F423R",with no effect,decreasing interaction strength,–
"Basic helix-loop-helix ARNT-like protein 1 (Mus musculus), Q9WTL8-4 L95E",disrupting interaction strength,with no effect,–
"Basic helix-loop-helix ARNT-like protein 1 (Mus musculus), Q9WTL8-4 L150E",with no effect,–,decreasing interaction strength
